Laboratory results taken from patent US11813311B2, “Treatment and prevention of metabolic diseases” (Singapore Health Services PTE LTD., priority 2019, dated 2023).
Read-outs that look alike come from different tables or passages of the source.

B1: X209: mouse anti-mouse IL-11Rα IgG (IgG1κ), neutralising; VH SEQ ID NO:24, VL SEQ ID NO:25 (antibody, V domains shown)
VH: QVQLQQPGAELVRPGSSVKLSCKASGYTFTNYWMHWLKQRPVQGLEWIGNIGPSDSKTHYNQKFKDKATLTVDKSSSTAYMQLNSLTSEDSAVYYCARGDYVLFTYWGQGTLVTVSA
VL: DIVLTQSPATLSLSPGERATLSCRASQSISNNLHWYQQKSHEAPRLLIKYASQSISGIPARFSGSGSGTDFTLSFSSLETEDFAVYFCQQSYSWPLTFGQGTKLEIK
modifications: Enx209 VH; Enx209 VL
B2: X203: mouse anti-mouse IL-11 IgG (IgG1κ), neutralising; VH SEQ ID NO:22, VL SEQ ID NO:23 (antibody, V domains shown)
VH: EVQLQQSGPELVKPGASVKIPCKASGYTFTDYNMDWVKQSHGKSLEWIGDINPHNGGPIYNQKFTGKATLTVDKSSSTAYMELRSLTSEDTAVYYCARGELGHWYFDVWGTGTTVTVSS
VL: DIVLTQSPASLAVSLGQRATISCRASKSVSTSGYSYIHWYQQKPGQPPKLLIYLASNLDSGVPARFSGSGSGTDFTLNIHPVEEEDAATYYCQHSRDLPPTFGGGTKLEIK
modifications: Enx203 VH; Enx203 VL

Assays:
HFMCD-fed mice [1] = test: Early-stage HFMCD NASH, antibody from week 1; format: in vivo, mouse; conditions: for development of fibrosis / lipid droplets in livers: HFMCD, 10 mg/kg biweekly from week 1; for hepatic lipid metabolism (lipogenesis and β-oxidation gene expression): RNA-seq, compared to IgG
Procedure: FIGS. 22A to 22K. Neutralisation of Il-11 signalling reverses liver damage in early stage NASH. (A) Relative liver mRNA expression of fibrosis and inflammation markers from mice fed with NC or HFMCD diets for the indicated time points. (B) Schematic of the anti-IL-11 therapy experiment early on in the HFMCD diet NASH model. Antibody treatments were started 1 week after the start of NASH diet when X209, X203, or IgG (10 mg/kg, biweekly) were administered intraperitoneally for 5 weeks. (C) Representative gross liver images and (D) Masson's Trichrome stained images of livers (scale bars, 100 μm) after 5 weeks of IgG or X209 treatments. (E) Hepatic triglyceride levels (n≥5/group), (F) liver hydroxyproline content of X209- and IgG-treated mice (n≥5/group), (G) serum ALT levels (n≥5/group). (H) Immunofluorescence images of IL6R and IL11RA expression in hepatocytes (scale bars, 100 μm). Dose-dependent effect of (I) IL-11 on ALT in hepatocyte supernatant and (J) stress fibers formation (rhodamine-phalloidin staining) in hepatocyte (scale bars, 200 μm). (K) IL-11 protein is secreted from primary human hepatocytes stimulated with TGFβ1 (5 ng/ml); 24 h. (E) Data are shown as box-and-whisker with median (middle line), 25th-75th percentiles (box) and min-max percentiles (whiskers); (F-G,I,K) data are shown as mean±s.d. (E) Tukey-corrected Student's t-test; (F,G) two-way ANOVA; (I,K) two-tailed Dunnett's test. FC: fold change; NC: normal chow; HFMCD: high fat methionine- and choline-deficient.
(§1) High fat methionine and choline-deficient (HFMCD) diet fed wild-type mice Five week old male C57BL/6N mice were fed with Methionine and Choline deficient diet supplemented with 60 kcal % fat (A060713011316, Research Diets); control mice were fed with normal chow (NC, Specialty Feeds). Durations of diet and antibody therapies are described.
Immune cells were isolated from liver as described previously 20. Liver tissues were minced and digested with 100 μg/ml Collagenase IV and 20 U/ml DNase I, at 37° C. for 1 h. Following digestion, cells were passed through strainer to obtain single cell suspension and subjected to percoll gradient centrifugation for isolation of immune cells. CyTOF staining was performed as previously described 21. Cells were thawed and stained with cisplatin (Fluidigm) to identify live cells, followed by staining with metal-conjugated CD45 antibody, for barcoding purpose. After barcoding, cells were stained with metal-conjugated cell surface antibody (Ly6C). Cells were then fixed with 1.6% PFA, permeabilized with 100% methanol, and subjected to intracellular antibody staining (TGFβ1). Cells were labeled with DNA intercalator before acquisition on Helios mass cytometer (Fluidigm). For analysis, first live single cells were identified, followed by debarcoding to identify individual samples. Manual gating was performed using Flowjo software (Flowjo).

TGFβ1-stimulated HSCs = test: Inhibition of MMP2 secretion by TGFβ1-stimulated HSCs (IC50); format: cell-based, human
Procedure: HSCs (5300, ScienCell) were cultured in stellate cells complete media (5301, ScienCell) on poly-L-lysine-coated plates (2 μg/cm2, 0403, ScienCell).
HSCs were stimulated with TGFβ1(5 ng m1^−1, 24 h) in the presence of IgG (4 μg ml^−1) and varying concentrations of X209 (4 μg ml^−1 to 61 pg ml^−1; 4-fold dilutions). Supernatants were collected and assayed for the amount of secreted MMP2. Dose-response curves were generated by plotting the logarithm of X209 tested concentration (pM) versus corresponding percent inhibition values using least squares (ordinary) fit. The IC50 value was calculated using log(inhibitor) versus normalized response-variable slope equation.
The levels of IL-11 and MMP-2 in equal volumes of cell culture media were quantified using Human IL-11 Quantikine ELISA kit (D1100, R&D Systems) and Total MMP-2 Quantikine ELISA kit (MMP200, R&D Systems), respectively. Total secreted collagen in the cell culture supernatant was quantified using Sirius red collagen detection kit (9062, Chondrex). Total hydroxyproline content in the livers was measured using Quickzyme Total Collagen assay kit (Quickzyme Biosciences). Mouse serum levels of alanine aminotransferease (ALT), cholesterol, and triglycerides were measured using Alanine Transaminase Activity Assay Kit (ab105134, abcam), Cholesterol Assay Kit (ab65390, abcam), and Triglyceride Assay Kit (ab65336, abcam), respectively. […]

HFMCD-fed mice [2] = test: HFMCD NASH model, antibody from week 6 to 10; format: in vivo, mouse; conditions: 10 mg/kg biweekly, four weeks of therapy from week 6
Procedure: FIGS. 20A to 20N. Therapeutic targeting of Il-11 inhibits and reverses NASH pathologies in preclinical models. (A) Schematic showing therapeutic use of X203 and X209 (10 mg/kg, biweekly) in HFMCD-fed mice for experiments shown in (B-E). X203, X209 or IgG isotype control were administered from week 6 to 10 of HFMCD diet. (B) Representative liver histological images (Masson's Trichrome staining; scale bars, 100 μm), (C) relative liver hydroxyproline content, (D) relative liver pro-inflammatory mRNA expression levels (n≥6/group) and (E) serum ALT levels. (F) Western blots of hepatic Erk activation status. (G) Schematic of X203 or IgG administration to MCD-fed db/db mice for experiments shown in H-N. Western blots of hepatic (H) Il-11 and Gapdh, (I) p-Erk and Erk. (J) Representative Masson's Trichrome images of liver from X203 or IgG-treated MCD-fed db/db mice (scale bars, 100 μm). The levels of (K) hepatic triglyceride, (L) relative liver hydroxyproline, (M) serum ALT, and (N) mRNA expression of liver pro-inflammatory markers (n≥5/group). (C-E,K-N) Data are shown as box-and-whisker with median (middle line), 25th-75th percentiles (box) and min-max percentiles (whiskers); two-tailed, Tukey-corrected Student's t-test. FC: fold change; NC: normal chow; HFMCD: high fat methionine- and choline-deficient; MCD: methionine- and choline-deficient.
as §1
Mice were injected intraperitoneally with either antagonist anti-IL-11 antibody, antagonist anti-IL11RA antibody or an identical amount of IgG isotype control for the treatment durations outlined in the figures.

Molecule	circulating TGFβ1 levels (HFMCD-fed mice [1]; HFMCD diet)	development of fibrosis (HFMCD-fed mice [1])	lipid droplets in livers (HFMCD-fed mice [1])	hepatic lipid metabolism (lipogenesis and β-oxidation gene expression) (HFMCD-fed mice [1])	Ly6C+veTGFβ1+ve cells (HFMCD-fed mice [1]; during steatohepatitis, CyTOF)	immune cells in liver (HFMCD-fed mice [1]; during steatohepatitis, CyTOF)	IC50 (TGFβ1-stimulated HSCs; TGFβ1 5 ng/ml, 24 h, 4 μg/ml to 61 pg/ml, 4-fold dilutions, read-out: IC50, blocking MMP2 secretion from HSCs) [nM]	Erk activation (liver) (HFMCD-fed mice [2])	liver damage (HFMCD-fed mice [2])	liver fibrosis (HFMCD-fed mice [2])	liver inflammation (HFMCD-fed mice [2])	steatosis (HFMCD-fed mice [2])	IC50 (TGFβ1-stimulated HSCs; read-out: IC50 for HSC activation) [nM]
B1	reduced	nor did these mice develop fibrosis	not seen	more so than X203, improved hepatic lipid metabolism	specific reduction	fewer immune cells	0.0058	abolished	inhibited or reversed	inhibited or reversed	inhibited or reversed	unchanged	–
B2	–	nor did these mice develop fibrosis	not seen	improved hepatic lipid metabolism	–	–	–	abolished	inhibited or reversed	inhibited or reversed	inhibited or reversed	unchanged	0.0401
